Assay results: patent publication US20150166668A1 (PROMIS NEUROSCIENCES, published 2015)

B1: DSE3 ab120 (antibody, V domains shown)
VH: QSVEESGGHLVTPGTPLTLTCTVSGIDLSTYAMGWVRQAPGKGLEWIGVITKSGNTYYASWAKGRFAISKTSTTVDLKITSPTTEDTATYFCGRYGIGVSYYDIWGPGTLVTVSS
VL: AQVLTQTPSPVSAAVGGTVTINCQSSQSLYNKNWLSWYQKKPGQPPKLLIYKASTLESGVSSRFKGSGSGTQFTLTISGVQCDDAATYYCQGEFSCSSADCTAFGGGTEVVVKG

How the values were obtained:
[1] = molecular target: PrP on the surface of normal cells (human) (UniProt P04156); assay: flow cytometry on HOEpiC Donor 1 normal ovarian epithelium
[2] = molecular target: PrP on the surface of normal cells (human) (UniProt P04156); assay: flow cytometry on HOEpiC Donor 2 normal ovarian epithelium
[3] = molecular target: PrP on the surface of normal cells (human) (UniProt P04156)
[4] = molecular target: PrP on the surface of normal cells (human) (UniProt P04156); assay: flow cytometry on HOEpiC Donor 3 normal ovarian epithelium
BSA-DSE3 peptide = molecular target: T1, BSA-DSE3 peptide (human); assay: ELISA, plate coated with BSA-peptide
T1 construct: also called immunogen peptides; specific peptide

Molecule | Ave S/N [1] | Ave S/N [2] | EC50 [3] [nM] | Ave S/N [4] | EC50 (BSA-DSE3 peptide) [nM]
Anti-PrP 6H4 antibody | 8.31 | 14.2 | 17 | 15.1 | –
B1 | – | – | – | – | 0.0655
